{"source": "patent US20220048967A1", "about": "(published 2022)", "binders": {"B1": {"name": "Example 24 (peptide)", "peptide": "Y[Aib]EGTFTSDYK([AEEA-AEEA-γGlu-C20 diacid])ILLDKIAQ[Aib]AFIEYLIEGGPSSGAPPPS-NH2", "modifications": "N-terminus assumed", "SMILES": "CC[C@H](C)[C@H](NC(=O)[C@H](CCCCN)NC(=O)[C@H](CC(=O)O)NC(=O)[C@H](CC(C)C)NC(=O)[C@H](CC(C)C)NC(=O)[C@@H](NC(=O)[C@H](CCCCNC(=O)COCCOCCNC(=O)COCCOCCNC(=O)CC[C@H](NC(=O)CCCCCCCCCCCCCCCCCCC(=O)O)C(=O)O)NC(=O)[C@H](Cc1ccc(O)cc1)NC(=O)[C@H](CC(=O)O)NC(=O)[C@H](CO)NC(=O)[C@@H](NC(=O)[C@H](Cc1ccccc1)NC(=O)[C@@H](NC(=O)CNC(=O)[C@H](CCC(=O)O)NC(=O)C(C)(C)NC(=O)[C@@H](N)Cc1ccc(O)cc1)[C@@H](C)O)[C@@H](C)O)[C@@H](C)CC)C(=O)N[C@@H](C)C(=O)N[C@@H](CCC(N)=O)C(=O)NC(C)(C)C(=O)N[C@@H](C)C(=O)N[C@@H](Cc1ccccc1)C(=O)N[C@H](C(=O)N[C@@H](CCC(=O)O)C(=O)N[C@@H](Cc1ccc(O)cc1)C(=O)N[C@@H](CC(C)C)C(=O)N[C@H](C(=O)N[C@@H](CCC(=O)O)C(=O)NCC(=O)NCC(=O)N1CCC[C@H]1C(=O)N[C@@H](CO)C(=O)N[C@@H](CO)C(=O)NCC(=O)N[C@@H](C)C(=O)N1CCC[C@H]1C(=O)N1CCC[C@H]1C(=O)N1CCC[C@H]1C(=O)N[C@@H](CO)C(N)=O)[C@@H](C)CC)[C@@H](C)CC"}, "B2": {"name": "Example 23 (peptide)", "peptide": "Y[Aib]EGTFTSDK([AEEA-AEEA-γGlu-C20 diacid])SILLDKIAQ[Aib]AFIEYLIEGGPSSGAPPPS-NH2", "modifications": "N-terminus assumed", "SMILES": "CC[C@H](C)[C@H](NC(=O)[C@H](CCCCN)NC(=O)[C@H](CC(=O)O)NC(=O)[C@H](CC(C)C)NC(=O)[C@H](CC(C)C)NC(=O)[C@@H](NC(=O)[C@H](CO)NC(=O)[C@H](CCCCNC(=O)COCCOCCNC(=O)COCCOCCNC(=O)CC[C@H](NC(=O)CCCCCCCCCCCCCCCCCCC(=O)O)C(=O)O)NC(=O)[C@H](CC(=O)O)NC(=O)[C@H](CO)NC(=O)[C@@H](NC(=O)[C@H](Cc1ccccc1)NC(=O)[C@@H](NC(=O)CNC(=O)[C@H](CCC(=O)O)NC(=O)C(C)(C)NC(=O)[C@@H](N)Cc1ccc(O)cc1)[C@@H](C)O)[C@@H](C)O)[C@@H](C)CC)C(=O)N[C@@H](C)C(=O)N[C@@H](CCC(N)=O)C(=O)NC(C)(C)C(=O)N[C@@H](C)C(=O)N[C@@H](Cc1ccccc1)C(=O)N[C@H](C(=O)N[C@@H](CCC(=O)O)C(=O)N[C@@H](Cc1ccc(O)cc1)C(=O)N[C@@H](CC(C)C)C(=O)N[C@H](C(=O)N[C@@H](CCC(=O)O)C(=O)NCC(=O)NCC(=O)N1CCC[C@H]1C(=O)N[C@@H](CO)C(=O)N[C@@H](CO)C(=O)NCC(=O)N[C@@H](C)C(=O)N1CCC[C@H]1C(=O)N1CCC[C@H]1C(=O)N1CCC[C@H]1C(=O)N[C@@H](CO)C(N)=O)[C@@H](C)CC)[C@@H](C)CC"}, "B3": {"name": "Example 26 (peptide)", "peptide": "Y[Aib]EGTFTSDYSIK([AEEA-AEEA-γGlu-C20 diacid])LDKIAQ[Aib]AFIEYLIEGGPSSGAPPPS-NH2", "modifications": "N-terminus assumed", "SMILES": "CC[C@H](C)[C@H](NC(=O)[C@H](CCCCN)NC(=O)[C@H](CC(=O)O)NC(=O)[C@H](CC(C)C)NC(=O)[C@H](CCCCNC(=O)COCCOCCNC(=O)COCCOCCNC(=O)CC[C@H](NC(=O)CCCCCCCCCCCCCCCCCCC(=O)O)C(=O)O)NC(=O)[C@@H](NC(=O)[C@H](CO)NC(=O)[C@H](Cc1ccc(O)cc1)NC(=O)[C@H](CC(=O)O)NC(=O)[C@H](CO)NC(=O)[C@@H](NC(=O)[C@H](Cc1ccccc1)NC(=O)[C@@H](NC(=O)CNC(=O)[C@H](CCC(=O)O)NC(=O)C(C)(C)NC(=O)[C@@H](N)Cc1ccc(O)cc1)[C@@H](C)O)[C@@H](C)O)[C@@H](C)CC)C(=O)N[C@@H](C)C(=O)N[C@@H](CCC(N)=O)C(=O)NC(C)(C)C(=O)N[C@@H](C)C(=O)N[C@@H](Cc1ccccc1)C(=O)N[C@H](C(=O)N[C@@H](CCC(=O)O)C(=O)N[C@@H](Cc1ccc(O)cc1)C(=O)N[C@@H](CC(C)C)C(=O)N[C@H](C(=O)N[C@@H](CCC(=O)O)C(=O)NCC(=O)NCC(=O)N1CCC[C@H]1C(=O)N[C@@H](CO)C(=O)N[C@@H](CO)C(=O)NCC(=O)N[C@@H](C)C(=O)N1CCC[C@H]1C(=O)N1CCC[C@H]1C(=O)N1CCC[C@H]1C(=O)N[C@@H](CO)C(N)=O)[C@@H](C)CC)[C@@H](C)CC"}, "B4": {"name": "Example 25 (peptide)", "peptide": "Y[Aib]EGTFTSDYSK([AEEA-AEEA-γGlu-C20 diacid])LLDKIAQ[Aib]AFIEYLIEGGPSSGAPPPS-NH2", "modifications": "N-terminus assumed", "SMILES": "CC[C@H](C)[C@H](NC(=O)[C@H](CCCCN)NC(=O)[C@H](CC(=O)O)NC(=O)[C@H](CC(C)C)NC(=O)[C@H](CC(C)C)NC(=O)[C@H](CCCCNC(=O)COCCOCCNC(=O)COCCOCCNC(=O)CC[C@H](NC(=O)CCCCCCCCCCCCCCCCCCC(=O)O)C(=O)O)NC(=O)[C@H](CO)NC(=O)[C@H](Cc1ccc(O)cc1)NC(=O)[C@H](CC(=O)O)NC(=O)[C@H](CO)NC(=O)[C@@H](NC(=O)[C@H](Cc1ccccc1)NC(=O)[C@@H](NC(=O)CNC(=O)[C@H](CCC(=O)O)NC(=O)C(C)(C)NC(=O)[C@@H](N)Cc1ccc(O)cc1)[C@@H](C)O)[C@@H](C)O)C(=O)N[C@@H](C)C(=O)N[C@@H](CCC(N)=O)C(=O)NC(C)(C)C(=O)N[C@@H](C)C(=O)N[C@@H](Cc1ccccc1)C(=O)N[C@H](C(=O)N[C@@H](CCC(=O)O)C(=O)N[C@@H](Cc1ccc(O)cc1)C(=O)N[C@@H](CC(C)C)C(=O)N[C@H](C(=O)N[C@@H](CCC(=O)O)C(=O)NCC(=O)NCC(=O)N1CCC[C@H]1C(=O)N[C@@H](CO)C(=O)N[C@@H](CO)C(=O)NCC(=O)N[C@@H](C)C(=O)N1CCC[C@H]1C(=O)N1CCC[C@H]1C(=O)N1CCC[C@H]1C(=O)N[C@@H](CO)C(N)=O)[C@@H](C)CC)[C@@H](C)CC"}, "B5": {"name": "Example 27 (peptide)", "peptide": "Y[Aib]EGTFTSDYSILK([AEEA-AEEA-γGlu-C20 diacid])DKIAQ[Aib]AFIEYLIEGGPSSGAPPPS-NH2", "modifications": "N-terminus assumed", "SMILES": "CC[C@H](C)[C@H](NC(=O)[C@H](CCCCN)NC(=O)[C@H](CC(=O)O)NC(=O)[C@H](CCCCNC(=O)COCCOCCNC(=O)COCCOCCNC(=O)CC[C@H](NC(=O)CCCCCCCCCCCCCCCCCCC(=O)O)C(=O)O)NC(=O)[C@H](CC(C)C)NC(=O)[C@@H](NC(=O)[C@H](CO)NC(=O)[C@H](Cc1ccc(O)cc1)NC(=O)[C@H](CC(=O)O)NC(=O)[C@H](CO)NC(=O)[C@@H](NC(=O)[C@H](Cc1ccccc1)NC(=O)[C@@H](NC(=O)CNC(=O)[C@H](CCC(=O)O)NC(=O)C(C)(C)NC(=O)[C@@H](N)Cc1ccc(O)cc1)[C@@H](C)O)[C@@H](C)O)[C@@H](C)CC)C(=O)N[C@@H](C)C(=O)N[C@@H](CCC(N)=O)C(=O)NC(C)(C)C(=O)N[C@@H](C)C(=O)N[C@@H](Cc1ccccc1)C(=O)N[C@H](C(=O)N[C@@H](CCC(=O)O)C(=O)N[C@@H](Cc1ccc(O)cc1)C(=O)N[C@@H](CC(C)C)C(=O)N[C@H](C(=O)N[C@@H](CCC(=O)O)C(=O)NCC(=O)NCC(=O)N1CCC[C@H]1C(=O)N[C@@H](CO)C(=O)N[C@@H](CO)C(=O)NCC(=O)N[C@@H](C)C(=O)N1CCC[C@H]1C(=O)N1CCC[C@H]1C(=O)N1CCC[C@H]1C(=O)N[C@@H](CO)C(N)=O)[C@@H](C)CC)[C@@H](C)CC"}}, "key": {"[1]": {"biological_target": "human GLP-1 receptor (human, UniProt P43220 24-463)", "experiment": "cell-based or functional assay"}, "[2]": {"biological_target": "T1, human GIP receptor (human, UniProt P48546 22-466)", "T1 sequence (looked up)": "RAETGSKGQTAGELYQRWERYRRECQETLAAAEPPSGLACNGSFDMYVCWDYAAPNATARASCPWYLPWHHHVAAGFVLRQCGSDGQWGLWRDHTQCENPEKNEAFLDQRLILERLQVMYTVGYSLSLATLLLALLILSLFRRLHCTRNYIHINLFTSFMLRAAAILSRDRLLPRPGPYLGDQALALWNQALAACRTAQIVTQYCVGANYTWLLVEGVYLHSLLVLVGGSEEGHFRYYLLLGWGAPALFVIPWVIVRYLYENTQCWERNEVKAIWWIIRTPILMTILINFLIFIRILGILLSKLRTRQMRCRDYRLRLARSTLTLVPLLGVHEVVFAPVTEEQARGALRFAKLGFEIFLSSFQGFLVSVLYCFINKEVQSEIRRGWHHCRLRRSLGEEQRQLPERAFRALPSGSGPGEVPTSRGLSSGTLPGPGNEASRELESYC", "experiment": "cell-based or functional assay"}}, "note": "Numbered stars: 1 amine (or outer) side, 2 acyl side, 3 side chain; on linkers, the order of the positions; unused ones are H or OH. Square brackets hold non-standard residues; d marks the D form. Side chains are listed from the residue outwards. Ends that are not written are not given here. * marks the point of attachment. C20 diacid = O=C(O)CCCCCCCCCCCCCCCCCCC(=O)*; γGlu = O=C(O)[C@H](CCC(=O)[*:2])N[*:1]; AEEA = NCCOCCOCC(=O)O; Aib = CC(C)(N)C(=O)O", "data": [{"binder": "B1", "values": [{"measurement": "hGLP1R cAMP EC50 ratio", "setting": "[1]", "result": 0.00416}, {"measurement": "hGLP1R cAMP Rel EC50", "setting": "[1]", "result": 13, "unit": "nM"}, {"measurement": "hGIPR cAMP EC50 ratio", "setting": "[2]", "result": 0.228}, {"measurement": "hGIPR cAMP Rel EC50", "setting": "[2]", "result": 0.762, "unit": "nM"}]}, {"binder": "B2", "values": [{"measurement": "hGLP1R cAMP EC50 ratio", "setting": "[1]", "result": 0.342}, {"measurement": "hGLP1R cAMP Rel EC50", "setting": "[1]", "result": 0.19, "unit": "nM"}, {"measurement": "hGIPR cAMP EC50 ratio", "setting": "[2]", "result": 0.754}, {"measurement": "hGIPR cAMP Rel EC50", "setting": "[2]", "result": 0.204, "unit": "nM"}]}, {"binder": "B3", "values": [{"measurement": "hGLP1R cAMP EC50 ratio", "setting": "[1]", "result": 0.238}, {"measurement": "hGLP1R cAMP Rel EC50", "setting": "[1]", "result": 0.293, "unit": "nM"}, {"measurement": "hGIPR cAMP EC50 ratio", "setting": "[2]", "result": 0.585}, {"measurement": "hGIPR cAMP Rel EC50", "setting": "[2]", "result": 0.251, "unit": "nM"}]}, {"binder": "B4", "values": [{"measurement": "hGLP1R cAMP EC50 ratio", "setting": "[1]", "result": 0.197}, {"measurement": "hGLP1R cAMP Rel EC50", "setting": "[1]", "result": 0.356, "unit": "nM"}, {"measurement": "hGIPR cAMP EC50 ratio", "setting": "[2]", "result": 0.636}, {"measurement": "hGIPR cAMP Rel EC50", "setting": "[2]", "result": 0.23, "unit": "nM"}]}, {"binder": "B5", "values": [{"measurement": "hGLP1R cAMP EC50 ratio", "setting": "[1]", "result": 0.123}, {"measurement": "hGLP1R cAMP Rel EC50", "setting": "[1]", "result": 0.557, "unit": "nM"}, {"measurement": "hGIPR cAMP EC50 ratio", "setting": "[2]", "result": 1.9}, {"measurement": "hGIPR cAMP Rel EC50", "setting": "[2]", "result": 0.0789, "unit": "nM"}]}]}
